In the supplement of paper PMC12764529:
± gives the half width of the 95% confidence interval.

How the values were obtained:
[1] = folding stability dG unfold (combined trypsin and chymotrypsin); higher = more stable
Method in brief: (§1)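 Digests were run with trypsin and chymotrypsin at 11 concentrations in threefold dilutions, plus a no-protease condition, on designed mini-proteins in a PA-tagged cDNA display construct. The mini-proteins were under 80 residues, had no cysteine, and were kept only when AlphaFold2 dimer inter-PAE was above 15. After sequencing, Bayesian fitting of the counts gave K50, from which unfolding free energy was derived against a sequence-predicted unfolded-state K50 and a shared folded-state K50, per protease or combined.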

[2] = folding stability dG unfold from trypsin proteolysis; higher = more stable
Method in brief: as §1

[3] = folding stability dG unfold from chymotrypsin proteolysis; higher = more stable
Method in brief: as §1

Sequence	folding stability dG unfold [1]	folding stability dG unfold [2]	folding stability dG unfold [3]
SAGGSAGMMATKPVEVEVEIPPDDPEAAKERVEAEIKAAFPGPVEVETTSYDPEKGLLKVKVVIKKSAGGSA [r15_1024_JUSTAS]	0.256 ± 0.33 kcal/mol	-0.497 ± 0.41 kcal/mol	0.0964 ± 0.19 kcal/mol
SAGGSAGGDEKAKEELKKKKPPKIELTVKVEVEVSEDGTVKVKAKVFGPDGKLIAEAEFTFKVKSAGGSAGG [r6_419_TrROS_Hall]	2.58 ± 0.38 kcal/mol	1.67 ± 0.19 kcal/mol	2.5 ± 0.12 kcal/mol
SAGGSMIPLDNIDTIEIYENPKEGKYEAKIYFPSNGKVYVFPEGLLPEIIESTPKIKEIKVIPVPESAGGSA [r2_159_TrMRF]	-0.0295 ± 0.25 kcal/mol	-1.19 ± 0.71 kcal/mol	0.362 ± 0.26 kcal/mol
SAGGSAGGSPNTIEIWIQIPPGDPEKVEEIAKKLRDEGFKDIKVDEVHRNPDDSYYVEIKITVSAGGSAGGS [r12_91_TrROS]	1.42 ± 0.083 kcal/mol	1.55 ± 0.12 kcal/mol	1.12 ± 0.025 kcal/mol
SAGGEEELKKNPDLIVIKITIRNKETGEEIEELEIVLSKEELEELLETLRKLLPPGWEIVKVEIRKLPSAGG [r13_849_TrROS_Hall]	4 ± 0.3 kcal/mol	4.11 ± 0.24 kcal/mol	3.02 ± 0.14 kcal/mol
SAGGMPVVKVTLRVELPETGETVDVTLYVDPSVPEEYLERLVRRVAEEVARLLRLPPPPVPPRPDELSAGGS [r16_191_TrMRF]	3.52 ± 0.095 kcal/mol	3.29 ± 0.12 kcal/mol	3.64 ± 0.057 kcal/mol
SAGGSAGGSAGGKDVRITVSPNNMRISIWKRDPNDGKWKPIGTIPMPPNDPDKALDQLKSAGGSAGGSAGGS [r10_275_TrROS]	-0.446 ± 0.18 kcal/mol	-0.216 ± 0.18 kcal/mol	-1.13 ± 0.91 kcal/mol
SAGGSELKPGDLVEVKVTVEFDEETGKATVEVEFNGKKLTVEVELEENQPPTVEVTLLVRIDKIEPSAGGSA [r2_113_TrROS_Hall]	2.46 ± 0.15 kcal/mol	2.36 ± 0.17 kcal/mol	2.48 ± 0.1 kcal/mol
SAGGSAGGSAGSMTITITETKKLPNGKTVVTTTKVEVRVFPNGGAIERKTLEVVTEELLGSAGGSAGGSAGG [r17_129_JUSTAS]	1.58 ± 0.098 kcal/mol	1.34 ± 0.041 kcal/mol	1.79 ± 0.053 kcal/mol
SAGGMVEREFTLDGTRITITYVPSEGVILATFPDRTVTVPVPESLKDKSPEEVIELAKEFAKEYLESSAGGS [r16_215_JUSTAS]	3.43 ± 0.058 kcal/mol	4.14 ± 0.16 kcal/mol	3.08 ± 0.041 kcal/mol
SAGGSAGGSAGGDPLPVTFTIPLEDDTTAKAVLSGDLVEVTIPNGKKYVLIPNPAVLGSSAGGSAGGSAGGS [r10_1176_TrMRF]	-0.216 ± 0.15 kcal/mol	-0.144 ± 0.11 kcal/mol	-0.232 ± 0.22 kcal/mol
PMIAPARLPDGSQTVSIFNANGELLVEAVVENDPELIEEAIEKLFEALPNIKPEELHVSVSDPETGESREIS [r1_55_TrMRF]	0.671 ± 0.19 kcal/mol	1.05 ± 0.049 kcal/mol	0.345 ± 0.17 kcal/mol
SAGGSAGGSAGKLYIIRIKGKKIILSEDEVEKLKKKYPNAEIIPFKSKEDAEKALKKLKESAGGSAGGSAGG [r11_60_TrROS_Hall]	2.52 ± 0.13 kcal/mol	2.16 ± 0.057 kcal/mol	2.75 ± 0.079 kcal/mol
SMIDIEISTDPNNPNVITVTAKYPDPEKAKEYLEKKLKEEYDVISISYEYEPENPIITFTFTYASPEKPQSA [r9_1120_JUSTAS]	2.79 ± 0.15 kcal/mol	2.37 ± 0.078 kcal/mol	3.11 ± 0.052 kcal/mol
SAGGPKVVRIRYTMPPDQARDFIEELFGRPMSADDIADKLPPGFKVGIRAHPNPNGHVTFEIWIKLPDSAGG [r13_869_TrROS]	2.93 ± 0.11 kcal/mol	2.37 ± 0.062 kcal/mol	3.068 ± 0.021 kcal/mol
SAGGSAGGSAGGSTITLRIEGLSKEEIEELARKLGAKVVSFDEKNKTVTIELPPGAKLLSAGGSAGGSAGGS [r4_3_TrROS_Hall]	2.09 ± 0.084 kcal/mol	1.88 ± 0.054 kcal/mol	2.19 ± 0.044 kcal/mol
SAGEVELTEDGSLKITETIEVNGLLFKVTVTIDENGNISVSIEKVEVLPPPPPVEIKLEDEEAKKKALKSAG [r5_715_TrROS_Hall]	1.16 ± 0.69 kcal/mol	0.26 ± 0.28 kcal/mol	1.61 ± 0.14 kcal/mol
SAGGSAGGSAGGAEELAKELAEKLGLEKKKVLIKLPNGKVVEVTIEDLKKLNLKNAEIVPSAGGSAGGSAGG [r7_863_TrROS_Hall]	0.786 ± 0.18 kcal/mol	0.906 ± 0.052 kcal/mol	0.492 ± 0.12 kcal/mol
SAGMTEVAKEIADTLAEQFPPGYKIDDIKVQPLPDNMFRVPITIKRRDPNGKPRGPRQIEIWIPPEQFSAGG [r19_28_TrROS]	0.532 ± 0.11 kcal/mol	0.755 ± 0.053 kcal/mol	0.21 ± 0.17 kcal/mol
SAGGSAGGSAGEIVEVDGKLYIRVRTKDGEWKLIEMSADEIASLPAENVEEVEIVDPKDLSAGGSAGGSAGG [r11_779_TrROS_Hall]	3.08 ± 0.11 kcal/mol	2.6 ± 0.1 kcal/mol	3.16 ± 0.075 kcal/mol
SAGMPVITTTEELPGGLTVTTTTYPPGDTTTTVTSPEGNVTTTTTTTTPTPTPTTTTTTTTTTTPVPPASAG [r5_944_JUSTAS]	1.44 ± 0.26 kcal/mol	1.56 ± 0.14 kcal/mol	1.26 ± 0.099 kcal/mol
